Results taken from patent publication US20220135661A1 (University of Pennsylvania, published 2022).

Legend:
[1] = target: human α-Synuclein (form not stated) (human, UniProt P37840 1-140); assay: direct ELISA; human αSyn against mouse αSyn as reference
[2] = target: T1, recombinant human preformed α-Synuclein fibrils (human, UniProt P37840 1-140); assay: sandwich ELISA, mAb coated, MJF-R1 reporter; human PFFs against human monomer as reference
Experimental: FIG. 1A is a pair of graphs depicting the affinity of mAb Syn9063.26.22 for human monomeric (top) and fibrillar (PFF) (bottom) α-Syn measured by sandwich ELISA. 384-well plates were coated with 0.3 μg of the indicated mAb. After blocking, these were incubated with various concentrations of α-Syn monomer or PFFs (expressed as monomer equivalent concentration) as indicated. MJF-R1 was used as a reporter antibody to determine affinity for each form of α-Syn. FIG. 1B is a pair of graphs depicting the affinity of mAb Syn9048.04.07 for human monomeric (top) and fibrillar (PFF) (bottom) α-Syn measured by sandwich ELISA. 384-well plates were coated with 0.3 μg of the indicated mAb. After blocking, these were incubated with various concentrations of α-Syn monomer or PFFs (expressed as monomer equivalent concentration) as indicated. MJF-R1 was used as a reporter antibody to determine affinity for each form of α-Syn. FIG. 1C is a pair of graphs depicting the affinity of mAb Syn9068.13.01 for human monomeric (top) and fibrillar (PFF) (bottom) α-Syn measured by sandwich ELISA. […] After blocking, these were incubated with various concentrations of α-Syn monomer or PFFs (expressed as monomer equivalent concentration) as indicated. […]
The affinity of three mAbs from the 9000 series for human monomeric and fibrillar (PFF) α-Syn was measured by sandwich ELISA. […]

[3] = target: recombinant mouse preformed α-Synuclein fibrils (mouse, UniProt O55042 1-140); assay: cell-based or functional assay
[4] = target: T1, recombinant human preformed α-Synuclein …; assay: cell-based or functional assay

Row | Binder | Recognition of Hu vs. Ms αSyn (fold) [1] [fold] | Selective binding to PFFs (fold over monomer) [2] [fold] | Inhibition in neuron assay (Ms PFFs) [3] [%] | Inhibition in neuron assay (Hu PFFs) [4] [%]
1 | Syn9063.26.22 (antibody, IgG2b, V domains shown, also called mAb Syn9063.26.22; MHC978) VH: QVQLKQSGPGLVQPSQSQSLTCTVSGFSLTSYGVHWVRQPLGKGLEWLGVIWSGGSTDYNAAFISRLSIRKDNSKSQVFFKMNSLQADDTAIYYCARTFTTSTSAWFAYWGQGTLVTVSA VL: QIVLTQSPAIMSASPGEKVTMTCSASSSVSYMYWYQQKPGSSPRLLIYDTSKLASGVPVRFSGSGSGTSYSLTISRMEAEDAATYYCQQWRSYPPTFGAGTKLELK | 1.1 | 100 | 50 | 80
2 | Syn9048.04.07 (antibody, IgG1, V domains shown, also called mAb Syn9048.04.07; MHC992) VH: QVQLQQSGPELVKPGASVRISCKASGYTFTTFYLHWVKQRPGQGLEWIGWIYPVNVKIKYSERFKGKATLTADKSSSTAYMQLGSLTSEDSAVYFCVRGGRGLDYWGQGTTLTVSS VL: NIMMTQSPSSLAVSAGEKVTMSCKSSQSVLYSSNQKNYLAWYQQKPGQSPKMLIYWASFRESGVPDRFTGSGSGTDFTLTISSVQAEDLAVYYCHQYLSLFTFGSGTKLEIK | 1.4 | 30 | > 95 | > 95
3 | Syn9068.13.01 (antibody, IgG1, V domains shown, also called mAb Syn9068.13.01; MHC993) VH: EVHLVESGGGLVQPKGSLKLSCAASGFTFNTYAMHWVRQAPGKGLEWVARIRNKSNNYATYYADSVKDRFTISRDDSQSMLFLQMDNLKTEDTAIYYCVRGGLSPFDYWGQGTTLTVSS VL: QIVLTQSPAIMSASPGEKVTMTCSASSSVTYMHWYQQKSGTSPKRWIYDTSKLASGVPARFSGSGSGTSYSLTISSMEAEDAATYYCQQWSSNPPTFGGGTKLEIR | 1 | – | ~90 | 85
